System: K4 kissing-loop RNA reporter
Assay: apparent KD of K4 kissing-loop reporter; higher = weaker reporter binding
Settings: Eterna round: R107
Description: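 RNA-MaP round R107: designed RNA switches with theophylline, tryptophan, arginine or FMN aptamers are transcribed on-chip within common flanks. They are titrated with a labelled K4 kissing-loop RNA reporter in RNA-MaP buffer (100 mM Tris pH 7.5, 80 mM KCl, 4 mM MgCl2), without ligand or with the indicated ligand. Median apparent KD per design.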

[1] = input ligand: theophylline 20 uM
[2] = input ligand: tryptophan 2.4 mM
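Note: bound reporter read as fluorescence of individual clusters on recovered sequencing chips by microscopy, with normalized cluster intensities fitted with a binding model.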

CUAUAAGUGCCGAGUGAUGUUCGGCCAAUACGAGGACCGGUACGGCCGCCACUCGGUCAGUGAGUGCCCACCGGGCGUGGCUGAC [Leedgeis]
apparent KD of K4 kissing-loop reporter (input ligand: FMN 200 uM): 261 nM | apparent KD of K4 kissing-loop reporter (input ligand: arginine 13.2 mM): 225 nM | apparent KD of K4 kissing-loop reporter (input ligand: none): 209 nM | apparent KD of K4 kissing-loop reporter [1]: 253 nM | apparent KD of K4 kissing-loop reporter [2]: 124 nM

GUAGGAUGAGGAGGAGGAUGAAUUACUGAAGGAGCGCAGAGAAAUGCAGGUAGGUCGCGGUAAAGAAGUAUAGUGAUGUUAUAUC [#09 K4 Arginine A Same State]
apparent KD of K4 kissing-loop reporter (input ligand: FMN 200 uM): 775 nM | apparent KD of K4 kissing-loop reporter (input ligand: arginine 13.2 mM): 308 nM | apparent KD of K4 kissing-loop reporter (input ligand: none): 657 nM | apparent KD of K4 kissing-loop reporter [1]: 526 nM | apparent KD of K4 kissing-loop reporter [2]: 598 nM

GGCACUUUUGGUAGACACCAUCUACCUCUAUAGGAUAUGCCGAAAGGCAGAAGGAUAGACCUACAGAGUGAUGUUCUGCGUGCCU
apparent KD of K4 kissing-loop reporter (input ligand: FMN 200 uM): 686 nM | apparent KD of K4 kissing-loop reporter (input ligand: arginine 13.2 mM): 801 nM | apparent KD of K4 kissing-loop reporter (input ligand: none): 1230 nM | apparent KD of K4 kissing-loop reporter [1]: 946 nM | apparent KD of K4 kissing-loop reporter [2]: 849 nM

UUCUGCAUCUCGGCCGCCACUCACUAGUGAUGUUAGUAAGGAGCGACUAGAAAAGUCCAGUUAAUGAGGACCGGGAGAAGCUCUU [Exclusion Tryptophan B GF 1]
apparent KD of K4 kissing-loop reporter (input ligand: FMN 200 uM): 281 nM | apparent KD of K4 kissing-loop reporter (input ligand: arginine 13.2 mM): 298 nM | apparent KD of K4 kissing-loop reporter (input ligand: none): 312 nM | apparent KD of K4 kissing-loop reporter [1]: 199 nM | apparent KD of K4 kissing-loop reporter [2]: 217 nM

AGACUACUGAUAGGAUAUAACAUCCUAGUCGUAUACCGAAAGGUAUACGAUUCCCUUCUAGUGAUGUUAGAAGGGUCGGUAGUCA [Omei KL FMN B Exc B v12]
apparent KD of K4 kissing-loop reporter (input ligand: FMN 200 uM): 78.5 nM | apparent KD of K4 kissing-loop reporter (input ligand: arginine 13.2 mM): 69.2 nM | apparent KD of K4 kissing-loop reporter (input ligand: none): 71.3 nM | apparent KD of K4 kissing-loop reporter [1]: 60.9 nM | apparent KD of K4 kissing-loop reporter [2]: 78.9 nM

AAUUUAUGAUCUGAUACCAGACUUUAUCUUGUUUAUAAGUCAAGUGAUGUUUGACUAUUAGUCCCUUGGCAGCAGUAUUGUUUAA [#17 K4 Theophylline B Same State]
apparent KD of K4 kissing-loop reporter (input ligand: FMN 200 uM): 243 nM | apparent KD of K4 kissing-loop reporter (input ligand: arginine 13.2 mM): 268 nM | apparent KD of K4 kissing-loop reporter (input ligand: none): 290 nM | apparent KD of K4 kissing-loop reporter [1]: 208 nM | apparent KD of K4 kissing-loop reporter [2]: 239 nM

GCGCGGCCCAGUGAUGUUGGGCCUCGGAGACGAGGACCGGUACGGCCGCCACUCGUCCGCGCAGCUGAGGCAAAAGCCUCGGCAA [Omei KL Tryp A SS B v6]
apparent KD of K4 kissing-loop reporter (input ligand: FMN 200 uM): 207 nM | apparent KD of K4 kissing-loop reporter (input ligand: arginine 13.2 mM): 190 nM | apparent KD of K4 kissing-loop reporter (input ligand: none): 228 nM | apparent KD of K4 kissing-loop reporter [1]: 187 nM | apparent KD of K4 kissing-loop reporter [2]: 107 nM

UAUGUACACUGGUAGUGGUACAUCGAGGAAGGAGCGUGCGCAGGCACAGGUAGGUCGCCUCAGCGCACGAGUGAUGUUCGUGGGC [Ceaqu]
apparent KD of K4 kissing-loop reporter (input ligand: FMN 200 uM): 308 nM | apparent KD of K4 kissing-loop reporter (input ligand: arginine 13.2 mM): 205 nM | apparent KD of K4 kissing-loop reporter (input ligand: none): 358 nM | apparent KD of K4 kissing-loop reporter [1]: 262 nM | apparent KD of K4 kissing-loop reporter [2]: 288 nM

AUUCGUUUAUGUGAUACCAGACUUUGCAGUGAUGUUGCAUUAAUUUUUGAUUAUUAGUUUGUCCCUUGGCAGCACUAUUUAUUUA [JR_SSTheophyB_Sub004]
apparent KD of K4 kissing-loop reporter (input ligand: FMN 200 uM): 40.2 nM | apparent KD of K4 kissing-loop reporter (input ligand: arginine 13.2 mM): 81.5 nM | apparent KD of K4 kissing-loop reporter (input ligand: none): 44.8 nM | apparent KD of K4 kissing-loop reporter [1]: 80.1 nM | apparent KD of K4 kissing-loop reporter [2]: 36.6 nM

UAGUCAUACAGAGGAUAUCGUAUGAGUGAUGUUCAUAUGCGUACAUCAACUUGAUGUACACCUAGACGAGAAGGCUGUAUGACUA [FMB B SS t6a]
apparent KD of K4 kissing-loop reporter (input ligand: FMN 200 uM): 172 nM | apparent KD of K4 kissing-loop reporter (input ligand: arginine 13.2 mM): 199 nM | apparent KD of K4 kissing-loop reporter (input ligand: none): 252 nM | apparent KD of K4 kissing-loop reporter [1]: 212 nM | apparent KD of K4 kissing-loop reporter [2]: 227 nM

UGAUACCAGACUGAUACCAGCUAGUGAUGUUAGCUGAAACAGGAACAGGCAAAGCCUGCUAGCCCUUGGCAGCAGUCUGGUAUCU [TheoBX 11 #SwitchBubble #StaticStem]
apparent KD of K4 kissing-loop reporter (input ligand: FMN 200 uM): 91.5 nM | apparent KD of K4 kissing-loop reporter (input ligand: arginine 13.2 mM): 90.6 nM | apparent KD of K4 kissing-loop reporter (input ligand: none): 96.9 nM | apparent KD of K4 kissing-loop reporter [1]: 152 nM | apparent KD of K4 kissing-loop reporter [2]: 85.3 nM

CCGUGGAGUGAUGUUCCACGUACUACGGAUACCAGCUUUGCCAAAGGCCCUUGGCAGCCGCACGGCUCAGUGAUGUUGGGUCGCG [Same State Theophylline A G10]
apparent KD of K4 kissing-loop reporter (input ligand: FMN 200 uM): 167 nM | apparent KD of K4 kissing-loop reporter (input ligand: arginine 13.2 mM): 153 nM | apparent KD of K4 kissing-loop reporter (input ligand: none): 172 nM | apparent KD of K4 kissing-loop reporter [1]: 156 nM | apparent KD of K4 kissing-loop reporter [2]: 148 nM

GGCAGUGAUGUUGCCUAAGCAAUGCAUGCGGAGGAUAUUCGUUUGGGAAGAAGGCCGCAGCGUUCUCUCGAGUGAUGUUCGAGUA [Same State FMN A GF 20]
apparent KD of K4 kissing-loop reporter (input ligand: FMN 200 uM): 155 nM | apparent KD of K4 kissing-loop reporter (input ligand: arginine 13.2 mM): 141 nM | apparent KD of K4 kissing-loop reporter (input ligand: none): 153 nM | apparent KD of K4 kissing-loop reporter [1]: 158 nM | apparent KD of K4 kissing-loop reporter [2]: 126 nM

AAAUAAAGCAGUCAGCCAGUGAUGUUGGAAGGAGCGUGCGAAAGCACAGGUAGGUCGCCAAAACCUAAUACUGGCUGCUAAAUAA [#SwitchBubble 1 #K4Early]
apparent KD of K4 kissing-loop reporter (input ligand: FMN 200 uM): 979 nM | apparent KD of K4 kissing-loop reporter (input ligand: arginine 13.2 mM): 643 nM | apparent KD of K4 kissing-loop reporter (input ligand: none): 773 nM | apparent KD of K4 kissing-loop reporter [1]: 753 nM | apparent KD of K4 kissing-loop reporter [2]: 542 nM

AUUUUCAUUUUAUUAUAUAACUUUUCAGAAGGAGCGUGGAAGUUCACAGGUAGGUCGCUGAAUAUUGGACUAGUGAUGUUAGUUA [JR_Nu_SSArginiA_Sub022]
apparent KD of K4 kissing-loop reporter (input ligand: FMN 200 uM): 202 nM | apparent KD of K4 kissing-loop reporter (input ligand: arginine 13.2 mM): 244 nM | apparent KD of K4 kissing-loop reporter (input ligand: none): 230 nM | apparent KD of K4 kissing-loop reporter [1]: 259 nM | apparent KD of K4 kissing-loop reporter [2]: 207 nM

UGAUACCAGACGGCCGCCACUCCUGCAGUCAAAGACUGCUAAAAGGAAAUCGUCCAGUGAUGUUGGAGGACCGGGUCUGGUAUCU [TrypBX 14 #SwitchBubble #Palindromic #StaticStem]
apparent KD of K4 kissing-loop reporter (input ligand: FMN 200 uM): 647 nM | apparent KD of K4 kissing-loop reporter (input ligand: arginine 13.2 mM): 738 nM | apparent KD of K4 kissing-loop reporter (input ligand: none): 1150 nM | apparent KD of K4 kissing-loop reporter [1]: 685 nM | apparent KD of K4 kissing-loop reporter [2]: 372 nM

CGCAGUGAUGUUGCGAGUAGCUACAGGGAAGGAGCGUGCUAGAGCACAGGUAGGUCGCCCACGCAGUGAUGUUGUGUCAAAGGGU [Exclusion Arginine A GF 11]
apparent KD of K4 kissing-loop reporter (input ligand: FMN 200 uM): 167 nM | apparent KD of K4 kissing-loop reporter (input ligand: arginine 13.2 mM): 168 nM | apparent KD of K4 kissing-loop reporter (input ligand: none): 165 nM | apparent KD of K4 kissing-loop reporter [1]: 179 nM | apparent KD of K4 kissing-loop reporter [2]: 146 nM

GCAAAACUCAGUGAUGUUGAGAUAUCGGAAGGAGCGCGUGAAAACGCAGGUAGGUCGCCGAUUCAAUGAGUUUCUCGUUGUUUGC [Arginine A K4 20]
apparent KD of K4 kissing-loop reporter (input ligand: FMN 200 uM): 248 nM | apparent KD of K4 kissing-loop reporter (input ligand: arginine 13.2 mM): 305 nM | apparent KD of K4 kissing-loop reporter (input ligand: none): 318 nM | apparent KD of K4 kissing-loop reporter [1]: 303 nM | apparent KD of K4 kissing-loop reporter [2]: 288 nM

GAAAGAAAGAAUGAUACCAGACACCCGAGUGAUGUUCGGAGCAGAGUGAUGUUCUAAUAAGUCCCUUGGCAGCAUAAAAGAAAAG [Same State Theophylline B GF 1]
apparent KD of K4 kissing-loop reporter (input ligand: FMN 200 uM): 240 nM | apparent KD of K4 kissing-loop reporter (input ligand: arginine 13.2 mM): 256 nM | apparent KD of K4 kissing-loop reporter (input ligand: none): 322 nM | apparent KD of K4 kissing-loop reporter [1]: 331 nM | apparent KD of K4 kissing-loop reporter [2]: 246 nM

UGUCAUUGGUCGGCCGCCACUUCGUGUGGAGUGAUGUUUUGUAGAUUGUGUUGAAAGGUAUGGUGAAGGACCGGGACCGAUGACU [FiskerMod 21 - Jieux - Same State - Tryptophan B]
apparent KD of K4 kissing-loop reporter (input ligand: FMN 200 uM): 1100 nM | apparent KD of K4 kissing-loop reporter (input ligand: arginine 13.2 mM): 368 nM | apparent KD of K4 kissing-loop reporter (input ligand: none): 1090 nM | apparent KD of K4 kissing-loop reporter [1]: 242 nM | apparent KD of K4 kissing-loop reporter [2]: 997 nM

AGAGAGGUGUUUUUUUGAAGUGAGUAAUGGCGAGGACCGGUACGGCCGCCACUCGGGUGAUGUUAGUGAUGUUGAUGUAGUGAUG [yrymullin]
apparent KD of K4 kissing-loop reporter (input ligand: FMN 200 uM): 79.3 nM | apparent KD of K4 kissing-loop reporter (input ligand: arginine 13.2 mM): 60.8 nM | apparent KD of K4 kissing-loop reporter (input ligand: none): 66.3 nM | apparent KD of K4 kissing-loop reporter [1]: 114 nM | apparent KD of K4 kissing-loop reporter [2]: 65.6 nM
